Results reported in patent US20170065713A1.

Target: soluble HLA-A*02:01 molecules (purified MHC with human β2-microglobulin) (human)
Experiment: competition with radiolabeled standard peptide for soluble HLA-A*02:01

Binder	Kd
NLLTTPKFT (modifications not checked) [gB342-350 peptide (HSV-1 glycoprotein B residues 342-350, …)]	> 500 nM
GIFEDRAPV (modifications not checked) [gB183-191 peptide (HSV-1 glycoprotein B residues 183-191, …)]	> 500 nM
